Here are results for three molecules from patent US20240301086A1 (APTEVO RESEARCH AND DEVELOPMENT, published 2024).

Experiment [1] has as its target T1, human Fcγ receptor IIB/C (human, UniProt P31994 46-217).
T1 sequence (looked up): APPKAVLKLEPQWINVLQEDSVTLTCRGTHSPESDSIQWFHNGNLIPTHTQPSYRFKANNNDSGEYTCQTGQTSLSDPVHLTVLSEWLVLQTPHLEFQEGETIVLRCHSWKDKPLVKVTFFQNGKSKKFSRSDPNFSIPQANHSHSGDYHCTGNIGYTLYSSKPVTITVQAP
Put plainly: SPR (Biacore T200), construct amine-coupled, Fcγ receptor titrated 375-6000 nM, 1:1 fit. As to the method:
(§1) The Fc region incorporated into anti-PSMA bispecific constructs contained mutations intended to reduce or abolish binding to common human and cynomolgus Fc gamma receptors. SPR experiments were conducted at 25° C. in HBS-EP+ with 0.2% BSA buffer on a Biacore T200 system to evaluate the impact of these mutations on binding. For these experiments, three flow cells of a CM5 sensor chip were immobilized with anti-PSMA bispecifics by standard amine coupling to a response level of ˜2000 RU. A blank immobilization was performed on flow cell #1 for purposes of background signal subtraction. Both human and cynomolgus monkey Fcγ receptors (purchased from R&D Systems) were diluted in HBS-EP+ with 0.2% BSA to 4-6 μM and then flowed as analytes at 30 μL/min for 120 seconds followed by a 240 second dissociation step. No regeneration step was required. Blank-subtracted sensorgrams were visually inspected for binding to each of the Fcγ receptor proteins. […] Attenuated binding to Fcγ receptors IIA (both polymorphic variants) and IIB/C was observed. PSMA01107 and PSMA01108 share the same Fc amino acid sequence and therefore equivalent Fcγ receptor binding behavior was expected.
TSC266 (PSMA×CD3 bispecific antibody) and another protein containing a wild-type IgG1 Fc sequence were also analyzed for comparison. Sensorgrams obtained from kinetic SPR measurements were analyzed by the double subtraction method in the Biacore T200 evaluation software. Kinetic parameters were derived from a one-to-one binding fit model and reported below in Table 8. Both TSC266 and PSMA01107 show reduced binding compared to a wild type IgG1 Fc.

The next experiment addresses T2, mIgG Fc-human PSMA ECD (human).
T2 construct: Called PSMA dimer in the SPR method; also called mFc-Hu PSMA ECD; murine Fc-tagged human PSMA ECD
Put plainly: SPR (Biacore T200), bispecific amine-coupled, mFc-PSMA dimer 1-81 nM as analyte, 1:1 fit. The method, then:
SPR studies were performed on a subset of bispecific constructs binding to Human and cynomolgus primate PSMA ectodomain (ECD) fused to the c-terminus of a murine IgG1 Fc region. These experiments were conducted at 25° C. in dPBS (Gibco, 14040-133) with 0.2% BSA buffer on a Biacore T200 system. Bispecific constructs were immobilized at a density of ˜2,000-4,000 response units (RU) onto individual flow cells of a CM5 research-grade sensor chip (GE) by standard amine coupling chemistry, leaving one flow cell surface unmodified as the reference. Using a multi-cycle kinetics mode, a buffer blank and […] different concentrations of the PSMA dimer ranging from 1 nM to 81 nM in dPBS with 0.2% BSA were sequentially injected through each flow cell at 30 μL/min for 300 seconds followed by a 600 second dissociation phase. Regeneration was achieved by injection of 10 mM glycine pH 2.0 at a flow rate of 30 μL/min for 40 seconds followed by dPBS with 0.2% BSA buffer stabilization for 1 min.
Sensorgrams obtained from kinetic SPR measurements were analyzed by the double subtraction method. The signal from the reference flow cell was subtracted from the analyte binding response obtained from flow cells with captured ligands. The buffer blank response was then subtracted from analyte binding responses and the final double-referenced data were analyzed with Biacore T200 Evaluation software (2.0, GE), globally fitting data to derive kinetic parameters. All sensorgrams were fitted using a simple one-to-one binding model.
(Surface plasmon resonance follows binding to a sensor surface in real time, without labels.)

Experiment [2] concerns the target T3, Human PSMA ECD-AFH (TSC033), recombinant dimeric PSMA ECD (human, UniProt Q04609 44-750).
T3 construct: SEC-purified dimer; also called HuPSMA-AFH; Avi-His-Human PSMA ECD
Put plainly: SPR (Biacore), recombinant dimeric PSMA ECD. As to the method:
Mouse anti-human IgG (GE, BR-1008-39) at 25 μg/ml in 10 mM sodium acetate pH 5.0 was immobilized at a density of ˜2,000-4,000 response units (RU) onto each flow cell of a CM5 research-grade sensor chip (GE) by standard amine coupling chemistry. Each anti-PSMA protein at approximately 40 nM in dPBS with 0.2% BSA buffer was captured in a flow cell with the immobilized anti-human IgG at a flow rate of […] for up to 30 seconds, leaving one flow cell surface unmodified as the reference. Using a multi-cycle kinetics mode, a buffer blank and […] different concentrations of ECD ranging from 1 nM to 243 nM were sequentially injected through each flow cell at 30 μL/min with association times varying from 300-600 seconds and dissociation times varying from 600-1200 seconds. Regeneration was achieved by injection of 3 M MgCl₂ at a flow rate of 30 μL/min for up to 40 seconds followed by dPBS with 0.2% BSA buffer stabilization for 1 min.
The KD was determined for a set of PSMA×CD3 bispecific proteins binding to recombinant dimeric PSMA ECD using SPR. In comparison to the constructs analyzed in Table 3, which all had the anti-PSMA scFv in the VL-VH orientation, the constructs in Table 11 have sequences with the reverse the order of the variable domains. The constructs below utilize the PSMA01023 anti-PSMA sequence as a basis.

Experiment [3] concerns the target T1, human Fcγ receptor IIB/C. Put plainly: SPR (Biacore T200), construct amine-coupled, Fcγ receptor at 4-6 µM as analyte. The method, then: as §1
Experiment [4] deals with T4, human Fcγ receptor IIA, R167 variant (human, UniProt P12318 36-218).
T4 construct: also called Type IIA R167
T4 sequence (looked up): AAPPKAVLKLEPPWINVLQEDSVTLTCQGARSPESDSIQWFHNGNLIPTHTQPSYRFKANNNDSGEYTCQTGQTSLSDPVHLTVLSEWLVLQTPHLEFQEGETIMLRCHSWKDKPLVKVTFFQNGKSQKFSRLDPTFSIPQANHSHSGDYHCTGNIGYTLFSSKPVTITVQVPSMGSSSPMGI
The description is as above. The method, then:
as §1

In experiment [5] the target is T5, human Fcγ receptor IIA, H167 variant (human, UniProt P12318 36-218).
T5 sequence (looked up): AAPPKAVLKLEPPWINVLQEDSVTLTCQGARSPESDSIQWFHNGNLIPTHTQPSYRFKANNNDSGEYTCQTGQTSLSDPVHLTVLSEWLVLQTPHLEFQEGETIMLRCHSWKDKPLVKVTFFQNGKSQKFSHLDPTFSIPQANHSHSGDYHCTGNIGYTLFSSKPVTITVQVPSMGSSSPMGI
The description is as above. As to the method:
as §1

T3 sequence (Q04609 other isoform, or with tags, fused parts or gaps): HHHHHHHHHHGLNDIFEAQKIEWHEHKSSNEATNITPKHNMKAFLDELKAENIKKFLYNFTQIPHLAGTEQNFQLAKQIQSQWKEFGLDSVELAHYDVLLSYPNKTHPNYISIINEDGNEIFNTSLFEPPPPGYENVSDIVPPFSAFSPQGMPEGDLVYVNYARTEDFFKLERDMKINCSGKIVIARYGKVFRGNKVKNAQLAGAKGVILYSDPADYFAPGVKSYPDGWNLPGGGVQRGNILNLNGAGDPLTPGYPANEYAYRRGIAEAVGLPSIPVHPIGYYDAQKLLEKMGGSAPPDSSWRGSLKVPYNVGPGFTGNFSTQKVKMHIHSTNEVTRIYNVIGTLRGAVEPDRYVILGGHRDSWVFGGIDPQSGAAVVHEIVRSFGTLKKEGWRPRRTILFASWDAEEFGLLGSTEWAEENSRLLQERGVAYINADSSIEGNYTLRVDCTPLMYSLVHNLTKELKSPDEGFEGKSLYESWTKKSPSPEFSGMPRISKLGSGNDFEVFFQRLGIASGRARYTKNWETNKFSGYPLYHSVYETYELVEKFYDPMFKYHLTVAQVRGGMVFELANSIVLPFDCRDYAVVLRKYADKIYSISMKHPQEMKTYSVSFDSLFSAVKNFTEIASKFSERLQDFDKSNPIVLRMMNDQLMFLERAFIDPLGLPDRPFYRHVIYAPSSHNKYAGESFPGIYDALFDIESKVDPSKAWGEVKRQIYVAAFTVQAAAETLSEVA

B1: TSC266 Anti PSMA scFv x Anti CD3 scFv ADAPTIR (bispecific antibody)
chain: DIQMTQSPSAMSASVGDRVTITCRASKSISKYLAWFQQKPGKVPKLRIHSGSTLQSGVPSRFSGSGSGTEFTLTISSLQPEDFATYYCQQHIEYPWTFGQGTKVEIKRGGGGSGGGGSGGGGSQVQLVQSGAEVKKPGASVKVSCKASGYTFTDYYMHWVRQAPGQGLEWMGYFNPYNDYTRYAQKFQGRVTMTRDTSISTAYMELSSLRSDDTAVYYCARSDGYYDAMDYWGQGTTVTVSSSEPKSSDKTHTCPPCPAPEAAGAPSVFLFPPKPKDTLMISRTPEVTCVVVDVSHEDPEVKFNWYVDGVEVHNAKTKPREEQYNSTYRVVSVLTVLHQDWLNGKAYACAVSNKALPAPIEKTISKAKGQPREPQVYTLPPSRDELTKNQVSLTCLVKGFYPSDIAVEWESNGQPENNYKTTPPVLDSDGSFFLYSKLTVDKSRWQQGNVFSCSVMHEALHNHYTQKSLSLSPGQRHNNSSLNTGTQMAGHSPNSQVQLVESGGGVVQPGRSLRLSCKASGYTFTRSTMHWVRQAPGQGLEWIGYINPSSAYTNYNQKFKDRFTISADKSKSTAFLQMDSLRPEDTGVYFCARPQVHYDYNGFPYWGQGTPVTVSSGGGGSGGGGSGGGGSAQDIQMTQSPSSLSASVGDRVTMTCSASSSVSYMNWYQQKPGKAPKRWIYDSSKLASGVPARFSGSGSGTDYTLTISSLQPEDFATYYCQQWSRNPPTFGGGTKLQITSSS
notes: The anti-PSMA domain is that of PSMA01012 and the anti-CD3 domain is DRA222; also called unoptimized parent construct; TSC266 control (PSMA × CD3 bispecific protein)
What is called Kd is a measure of binding affinity in units of concentration. In the experiment with human Fcγ receptor IIB/C [1], B1 yielded a Kd of 2700 nM.

B2: PSMA01107 Anti-PSMA scFv x Fc x linker x Anti CD3 scFv; Anti PSMA scFv x Fc (bispecific antibody)
chain 1: QVQLVQSGAEVKKPGASVKVSCKASGYTFTDYYMHWVRQAPGQGLEWMGYFNPYNDYTRYAQKFQGRVTMTRDTSTSTVYMELSSLRSEDTAVYYCARSDGYYDAMDYWGQGTTVTVSSGGGGSGGGGSGGGGSGGGGSDIQMTQSPSSLSASVGDRVTITCRASKSISKYLAWYQQKPGKAPKLLIHSGSSLESGVPSRFSGSGSGTEFTLTISSLQPDDFATYYCQQHIEYPWTFGQGTKVEIKEPKSSDKTHTCPPCPAPPAAAPSVFLFPPKPKDTLMISRTPEVTCVVVDVSHEDPEVKFNWYVDGVEVHNAKTKPREEQYNSTYRVVSVLTVLHQDWLNGKEYKCAVSNKALPAPIEKTISKAKGQPREPQVYTLPPSRDELTKNQVSLWCLVKGFYPSDIAVEWESNGQPENNYKTTPPVLDSDGSFFLYSKLTVDKSRWQQGNVFSCSVMHEALHNHYTQKSLSLSPGGGGSPSQVQLVQSGAEVKKPGASVKVSCKASGYTFTRSTMHWVRQAPGQGLEWIGYINPSSAYTNYAQKFQGRVTLTADKSTSTAYMELSSLRSEDTAVYYCASPQVHYDYNGFPYWGQGTLVTVSSGGGGSGGGGSGGGGSGGGGSDIQMTQSPSSLSASVGDRVTITCRASSSVSYMNWYQQKPGKAPKRWIYDSSKLASGVPSRFSGSGSGTDFTLTISSLQPEDFATYYCQQWSRNPPTFGQGTKVEIKRS
chain 2: QVQLVQSGAEVKKPGASVKVSCKASGYTFTDYYMHWVRQAPGQGLEWMGYFNPYNDYTRYAQKFQGRVTMTRDTSTSTVYMELSSLRSEDTAVYYCARSDGYYDAMDYWGQGTTVTVSSGGGGSGGGGSGGGGSGGGGSDIQMTQSPSSLSASVGDRVTITCRASKSISKYLAWYQQKPGKAPKLLIHSGSSLESGVPSRFSGSGSGTEFTLTISSLQPDDFATYYCQQHIEYPWTFGQGTKVEIKEPKSSDKTHTCPPCPAPPAAAPSVFLFPPKPKDTLMISRTPEVTCVVVDVSHEDPEVKFNWYVDGVEVHNAKTKPREEQYNSTYRVVSVLTVLHQDWLNGKEYKCAVSNKALPAPIEKTISKAKGQPREPQVYTLPPSRDELTKNQVSLSCAVKGFYPSDIAVEWESNGQPENNYKTTPPVLDSDGSFFLVSKLTVDKSRWQQGNVFSCSVMHEALHNHYTQKSLSLSPG
notes: Heterodimer, bivalent for PSMA and monovalent for CD3 (VH-VL scFv at the C-terminus); also called PSMA1107
As usually defined, the koff is the rate constant with which the complex falls apart. The term kon denotes the rate constant with which the complex forms. Molecule B2 yielded a Kd with mIgG Fc-human PSMA ECD of 3 nM. Further, in experiment [2], the Kd is 3.4 nM, the off-rate constant (koff) turned out to be 8.5e-05 s⁻¹ and the kon worked out at 29000 M⁻¹ s⁻¹. The same molecule showed a Kd with human Fcγ receptor IIB/C [1] of 6500 nM.

B3: PSMA01108 Anti-PSMA scFv x Fc x linker x Anti CD3 scFv; Anti PSMA scFv x Fc (bispecific antibody)
chain 1: QVQLVQSGAEVKKPGASVKVSCKASGYTFTDYYMHWVRQAPGQGLEWMGYFNPYNDYTRYAQKFQGRVTMTRDTSTSTVYMELSSLRSEDTAVYYCARSDGYYDAMDYWGQGTTVTVSSGGGGSGGGGSGGGGSGGGGSDIQMTQSPSSLSASVGDRVTITCRASKSISKYLAWYQQKPGKAPKLLIHSGSSLESGVPSRFSGSGSGTEFTLTISSLQPDDFATYYCQQHIEYPWTFGQGTKVEIKEPKSSDKTHTCPPCPAPPAAAPSVFLFPPKPKDTLMISRTPEVTCVVVDVSHEDPEVKFNWYVDGVEVHNAKTKPREEQYNSTYRVVSVLTVLHQDWLNGKEYKCAVSNKALPAPIEKTISKAKGQPREPQVYTLPPSRDELTKNQVSLWCLVKGFYPSDIAVEWESNGQPENNYKTTPPVLDSDGSFFLYSKLTVDKSRWQQGNVFSCSVMHEALHNHYTQKSLSLSPGGGGSPSDIQMTQSPSSLSASVGDRVTITCRASSSVSYMNWYQQKPGKAPKRWIYDSSKLASGVPSRFSGSGSGTDFTLTISSLQPEDFATYYCQQWSRNPPTFGQGTKVEIKGGGGSGGGGSGGGGSGGGGSQVQLVQSGAEVKKPGASVKVSCKASGYTFTRSTMHWVRQAPGQGLEWIGYINPSSAYTNYAQKFQGRVTLTADKSTSTAYMELSSLRSEDTAVYYCASPQVHYDYNGFPYWGQGTLVTVSS
chain 2: QVQLVQSGAEVKKPGASVKVSCKASGYTFTDYYMHWVRQAPGQGLEWMGYFNPYNDYTRYAQKFQGRVTMTRDTSTSTVYMELSSLRSEDTAVYYCARSDGYYDAMDYWGQGTTVTVSSGGGGSGGGGSGGGGSGGGGSDIQMTQSPSSLSASVGDRVTITCRASKSISKYLAWYQQKPGKAPKLLIHSGSSLESGVPSRFSGSGSGTEFTLTISSLQPDDFATYYCQQHIEYPWTFGQGTKVEIKEPKSSDKTHTCPPCPAPPAAAPSVFLFPPKPKDTLMISRTPEVTCVVVDVSHEDPEVKFNWYVDGVEVHNAKTKPREEQYNSTYRVVSVLTVLHQDWLNGKEYKCAVSNKALPAPIEKTISKAKGQPREPQVYTLPPSRDELTKNQVSLSCAVKGFYPSDIAVEWESNGQPENNYKTTPPVLDSDGSFFLVSKLTVDKSRWQQGNVFSCSVMHEALHNHYTQKSLSLSPG
notes: also called PSMA1108; PSAM01108
For B3, the binding result in the experiment with human Fcγ receptor IIB/C [3] is recorded as “binds”. Moreover, the binding result in experiment [4] is reported as “binds”. The binding result in experiment [5] is “binds”. For the same molecule, in experiment [2], the Kd was determined as 3.1 nM, the koff was determined as 9e-05 s⁻¹ and the kon is 29000 M⁻¹ s⁻¹.
